Data as given in patent US7833548B2, “Bioactive agent release coating and controlled humidity method” (Surmodics, Inc., priority 2002, dated 2010).

Assay: Bioactive Agent Release Assay, dextran-TRITC from discs with polymer topcoat coated under controlled humidity
Format: physicochemical
Conditions: pEVA (33% vinyl acetate)/pBMA topcoat over dextran-TRITC layer, PBS, 37° C.; FIG. 2
Protocol: Two solutions were prepared in order to provide a coating composition of the presently claimed invention in the form of a two part system. The first solution was an aqueous solution containing the bioactive agent, dextran-TRITC, at a concentration of 15 mg/ml. The second solution contained poly(ethylene-co-vinylacetate) with a vinyl acetate concentration of 33% (w/w) and poly(n-butyl methacrylate), with approximate weight average molecular weight of 337 kilodaltons. The poly(n-butyl methacrylate) and poly(ethylene-co-vinylacetate) were purified by extraction with organic solvents to remove impurities, e.g., monomer residues. The polymers of the second solution were dissolved in tetrahydrofuran at a concentration of 10 mg/ml. […]
A suitable Bioactive Agent Release Assay, as describe herein, can be used to determine the extent and rate of bioactive agent release under physiological conditions. In general it is desirable that less than 50% of the total quantity of the bioactive agent be released in the first 24 hours. It is frequently desirable for quantities of bioactive agent to be released for a duration of at least 30 days.
Except as otherwise provided herein, each coated disc was placed in an amber vial with 4 mls of PBS. […] The concentration of bioactive agent in each PBS sample was determined using UV spectroscopy. […]

tetramethylrhodamine isothiocyanate-Dextran [dextran-TRITC]
release rate of the bioactive agent, topcoat coated at 48% relative humidity versus 10% relative humidity: released at a faster rate
